Measurements reported in the DeepSol protein solubility set.

Assay: soluble on expression in E. coli; label from the status in PepcDB or PDB records

Row | Sequence | soluble on expression in E. coli
1 | MLAERLVNDYDVEVLTTCVKNYVTGDNEYPEGEEILNGVLVRRFYSDPVEPDLHKSYVRQAAPAKKWRHFLYRCRLLKPLSYVKPIWHYKEQEEIKALNSQVFYSSSMYAFIRENKASYRAFIPLSFFPHTYYTALYAPEKTILIPTMHNNGSSFRSIITSVFSEVAYIGFNIEAEQKLVENIVGKPLAAHGIISVGIEKTKAADWEQTKVKYNLPEDYLLYVGRIDAIKLNNIVDYFLSYKKKYVGSRLKLVLVGGIFGKTVEHPDIIYTGFVDDAEKVAIQLNAKVIVNPSRYESLSLILLETMSEGKAMLVNGRCNVLREHCEKSNYAALYYMNRRDFMRKLHNLENSETLRQQMGEKGRHYVQENYNWEMIIGRMKNVIQMLS | not soluble
2 | MSDKIIHLTDDSFDTDVLKADGAILVDFWAEWCGPIEESDDRRYDLVGPCKMIAPILDEIADEYQGKLTVAKLNIDQNPGTAPKYGIRGIPTLLLFKNGEVAATKVGALSKGQLKEFLDANLA | soluble
3 | MVKTGIEDVCGHWGHNFWRDKFKKFDDKYLRNVLIRENQPKSSIVSLYKKLEIKHAIEMAETGMISTVPTFASLNDCREEKIRKVTSSETDEIRELLSRNLYQIRQRTLSYNRHSLTADTSERQAKEILIRRRHSLRESIRKDSSLNREHRASTSTSRYLSLPKNTKLPEKLQKRRTISIADGNSSSSDAHAGTTVLNLLEHHHHHH | not soluble
4 | MSLTDLSRPTLPGALPDKRQVAASFSRAAASYDSVAALQRAVGLSLLEQLPAGLQPSHWLDLGSGTGHFSRMLAERFAQAGGVAVDIAEGMLLHARHVKGGAQYHVVGDAERLPLRDASVDLVFSSLAVQWCDQFASVLAEAQRVLRPGGVLAFSSLCVGTLDELRASWQAVDGLVHVNRFRRFEDYQRLCAASGFEQLELERCPHVLHYPDVRSLTHELKALGAHNLNPGRPSGLTGRARMQGLLQAYEAFRQPAGLPATYQVVYGVLRKPLAEGHHHHHH | not soluble
5 | MEARPRVAGIVLAAGKSTRMGRPKQLLPFRGRTVLECVVDNALASRLHRVVVVLGHEAEAVMPLLGHRCVTTVVNPLYGEGQSSSLKAGLGAMTEETDAALFLLGDQPLVTADTINLLIAAFADFPSPIVIPTFEGHRGNPVLFSRETFPRIEALSGDRGARGLFREYGDDIRSIDVRTPAILFDLDTEEDYLRLLREFPAVLEHHHHHH | not soluble
6 | GMRQGAGLGYRRDLAEGFLQLRNNDRIQFMEIAPENWIKMGGFARYQFDKVAEKIPILIHGLSLSLGGQAPLDKELLSSIKAMIKQYNTPFFSDHLSFCECDGHLYDLLPMPFTDEAVKHTAARIREVQDFLEIQISVENTSYYLHSETSTMNEVEFLNAIVQEANCGIHLDVNNIYVNAVNHGLLDPHVFIDNVDLKRVNYIHIAGHDDEHAATEVQIQTSESFNKIKGDLRHLPPLLVDTHGENVKGTVWDLLEYTYARLSHMPPTLLERDFNFPPFEKLCKEVDIIHQLQQKYVKKRGLSWLKI | soluble
7 | MSLSEYRRKRSFDKTREPEPGKTLPPGQRAIFVVQLHHASRRHYDFRLQVGDALKSWAVPKGPSYDPKVKRMAVEVEDHPVDYASFEGEIPRGEYGGGHVAQFDHGVWATAGDPEAQLAKGHLRFELFGNKLKGGWHLVRSGKPARQPQWLLFKEDDAYAGLEHHHHHH | soluble
8 | PDVKCVCCTEGKECACFGQDCCVTGECCKDGTCCGI | soluble
9 | MADFAARLNKLFDTVHPPGRKPHTNAEVAAALIADGHQISKPYISQLRSGQRTNPSDETVAAFARFFKVKPDYFFNDIYAAKIDHDLELLSQLQGYGLRKLSSRAFDLSEESQNLLTTMAEKLRASEGLPEVPPDASR | not soluble
10 | MSLADFTHLLRPSNFDELIGQDHLSKDKAPLRVLCQKGVLGHSFFFGPSGTGKTSIARIIAKTMELPFYEFNATSIKIEQLRAIFEQYKNTLQKPLIFIDEVHRLAKNQQEVLLPVMENNSALIIGASTENPFFSLTSAIRSRSMLFELHHISNEALSRLLRRALDSSDITCSDEALEYLIKSSGGDARSMLKLLEFASNIGTHITLDILKSLRPNALSVGSSEAGVHYDLSSAMIKSIRGSDMDAAIYYLARLIDGGESAEFIARRLVILASEDVGNANPQALTLATSAMTSVSKIGYPEARIILSQAVIYLCASPKEGHHHHHH | not soluble
11 | MSSKSIHEKRAIAKYAASLIEDGDCIFVDAGTTTYELIDYLEGKDILVVSNGLSHIDTLIQKNIKCYVIGGNIKISTKAITGCDALMCLSKFRFDKCFIGANGVHHTYGLTTPDTEEAILKECAINNSRKAYVLADDSKFGEISTIKFSDINKCVIITNEKPKDNTYDKKTDIKVVDILEHHHHHH | soluble
12 | METRLLVLKYDILNREAICLNRETHELLHANLVESVQPQIGQFLAVENLKIVQIDGVCFISPECGTIVIEPPAPEDCVILPKEKTDVVMFKSWIGFSSDPSHLTYDRNIGYADWYGPVNCSQFKAKNTKVAFFKYLIAVNDLDYKNTGECLMKAVQLVGVIDNRDAAEVRLKMMEFERKRIADIQRTTKQTRLIETVAYPILPSAHQPSSNHSYTGRSSCDSLRPQPVPAARKLSEQPQTVQNQAPYREQINQQRSVTNSIYGEFSGVGRTDQPLETANSRGSTEYYSGRSSSSSDQVIRNEPQLPNPAPILPESMGMVTYENGIMQIVYLRSVQKAAIHYWSKHQITTSLGSVFNCSFKPIPVQATTHWAPFEITAINNVNNEKNEVKTVGKECFALFKVDLSRPEGKFSKWTTIGGNPIFSCEIVGYVMLAHSVLGPQQNQLSILNVAQNYYNRKVAENICCFCRFVRRQVPRMMVDSHWISEDEEVEVFIWELVEIVGASELYRKRQEQLEIGNLGDTADNVKRHNDDIEMQKKRAQQEHFAQQQRPAGSSNSYQTENAQQHSMSNNMQYYHSQAPPVSSRSSISLGETAEFKNKLERTNDMMESLCDAIKKFLDNRQLKETLRGYNPRRLQALEEKLKECSEHLENN | not soluble
13 | MGSDKIHHHHHHMSCSHEHESLLVTSPNKSAQAVADALEKHPITFSLPQQFYSDADVFQVEMEQIFYKEWLFVGITGEIPDNGNFITLDIGDNPITVIRDQNGEVRAFHNTCRHRGSKICLVKQGKVPKLVCPYHQWTYELDGNLLFAGTEMGDDFDKNDYGLHKVNCRVAGGYIFVSLSENPTNIDGFFDDLTHYLEPYDLDNCKVAVESTLIEDANWKLVIENNRECYHCSGNHPELLNTLLEWDDTEDPRASDEFKAQVAAKQAMWEAEGIPYKHVSHGHGLRNRIVRMPLLEGTVSMTIDGKAGCKKLMGRIKNPDLGSMRILHLPNSWSHAMGDHLIAFQVIPLGAQKTQVTTKWIVHKDAVEGVDYDVAQLRQVWDATNVQDRTLAENNQKGINSKAYQPGPYSTTFEFGVVNFIDWFSHTMQSNIKASAEKS | not soluble
14 | MKTQQREQALAIYQQHQGKITNRAIADTIGVSAKTIGIWKKQDKWKEALFSASKNEQKQRPINNDELNERQRLFCLYYVKSFNATQSAIKAGYSPDSAHVTGSRLLKNEKVAAEIRRIKKEMVNEMFIEAMDVLQVYIKIAFADITDYVTFGKKEVQAVGKSGPLFDEDDNPIMKEISFVDVKDSGLVDGTIVTEAKLGKEGIAIKLADKMKALEKLSLYFDLFPDQFKQKIENEKLKLAKQKAEKTDDSQEPIEIMIKRKERKS | not soluble
15 | MVTKAKQIREKESKVAEFKYKNLTQEEQDKLDAATFRRLLAHLDANKDVQNIDLMILAGFCRNCFSKWYKAEAENLSLDLDIDDARERVYGMTYDEWKQNHQPAATPEQLAAFEARQKK | not soluble
16 | MAHHHHHHMKRGREEDKEAEVGGSRVGPSDRRSAATSTEHKPRRLLKGADVGLPLHESVIEETCEVEETHAVLVRFPCFDFFRHVRVCERTRDLQPATSDDAAKASASLASALSDTTFRSGAPPVTSTHDTADVAFAPEAAVFIPGTLETDAPRLLLNGGTPHEMLFEGQWTEVTGEGVSVTNRAVVHLSAKTAGIAVSPAALPLNTSPIMSDAAKSPELARAAAESFPASASQATATPALPIASLLTHTLAGVTADEERRQRAEQQKGWTYDRIDVPSAVLVMHRVR | not soluble
17 | MSLAAESTYKKLVMLVDDNETDNFIHRRVLEMGNFSKNIIVKNSGKSALEYLEANQSNSELIPEVIFLDINMPIVDGFVFLFEFESFPESIKERCKIIVLSSSDNKKDIDRIVDNDYVVHFITKPLSEDSIAELKKMVEGHHHHHH | soluble
18 | MGSSHHHHHHSSGLVPRGSHMFKPKKKLGQCFLIDKNFVNKAVESANLTKDDVVLEIGLGKGILTEELAKNAKKVYVIEIDKSLEPYANKLKELYNNIEIIWGDALKVDLNKLDFNKVVANLPYQISSPITFKLIKRGFDLAVLMYQYEFAKRMVAAAGTKDYGRLSVAVQSRADVEIVAKVPPSAFYPKPKVYSAIVKIKPNKGKYHIENENFFDDFLRAIFQHRNKSVRKALIDSSKELNYNKDEMKKILEDFLNTNSEIKNLINEKVFKLSVKDIVNLSNEFYRFLQNRGRL | soluble
19 | MTRDDDDDEDDEEEEDSGAWGRESYAFDGFHPTEEFGFSFSPRGGMRFHGNFGFDDLVRDFNSIFSEMGAWTLPSHSPELPGPESETPGVRLREGQTLRDSMLKYPDSHQPRIFEGVLESHAKPESSKPAPDWGSQGPFHRLDDTWPVSPHSRAREDKDLDSQVSQEGLGPLLQPQPKSYFKSISVTKITKPDGTVEEHRTVVDGEGRRETTVTHQEAHDSSRSDPDPPRSSALDDPFSILDLLLGRWFRSR | not soluble
20 | MAHHHHHHMEANGTLVECKRGESDAVVFRFLIIDAPSPSSVPAYMKLLQRHNVMHIVRACGPTYNAEVFEKQGIVVHGWSFDDGASPTQTVIDNWLNLLEQEKNKSPPETIAVHCVSGLGRAPILVALALVEYGGMPPLDAVGYVRGRRKGAINQVQLNWLMRYKPRHQESNEGSLICARCTLM | soluble
21 | MSLTSVKEFPTIKAVRSFVIGGVGSGGDYHNVEGGHWLIDSPISTPCSRWEEYRKSRTSWGINVLGSFFVEIEASDGTVGYATGFGGPPACWLTHQHFERFLIGADPRRTNHLFEQMYRASMFYGRKGLPIAVISVIDLALWDLLGKIRKEPVYQMIGGATKDRLNFYCTGPEPTAAREMGFWGAKVPLPYCPDEGHVGMKKNIEFLRKHREAVGPDFPLMVDCYMSLNVSYTIELAEKCKDLDINWWEECLSPDDTDGFEQIKRAHPTLKFTTGEHEYSRFGFRKLVEGRNLDIIQPDVMWLGGLTELLRVSAMAAAYDIPVVPHASGPYSYHFVMSQPNTPFQEYLANSPDGKSVLPVFGDLFLDEIIPSKGFLTPKDLDQPGFGLTLNPAARAKMIPGEFWVNPAPLKALTSGAPAEEKKEGAVEAVVNKVQELTTSEGHHHHHH | soluble
22 | MIDVKSIILIVLDGLGDRPGEILGYRTPLQAAYHPNMNRMASLGMTGLMHPISPGIRSGSDTSHMSLLGYDPRVYYQGRGPFEALGLHMDMKPGDLAFRANFATNRDGKIIDRRAGRINAGNDQLASAISIDIGNYKFRVKSGVEHRAALVVSGPNLSDKISDSDPHSEGKPPEPIRPLDPSADSTAKIMNEYLKRIREILRDHPVNVEREKNGQIPGNELLIRSAGKVPDIPSFQEKNGITGACVVGSPWLKGLCRLLGMAVIDVPGAAGTINSNYTGKIKTAIDASKRYDFVLVNIKATDVAGHDGDYELKRRVIEDIDIAMEPLLGQSDRIVVAITGDHSTPCSVKDHSGDPVPIVFYTDGIYSDDVKLFDEVSAMKGALRITTQDVLNILMEMAGRAEKFGSLEHHHHHH | soluble
23 | MSLKIGIVGPGAIGLLYTFYLQKSNQDVTLFTRTAKQAEELNETGVTCIRDGRCETVYPPVLPIESMVAQNLDYIFISVKQYHIDDVLPFVEGASSLIFLQNGMSHLQKMLKIGSENIAVGIVEHGAKKEGGHIVHHTGIGVTKFGVVCGQSIHFKKIFRYFPVTYFPVQIETDWEEIMHKKLVVNVCINPLTALLGVKNGELITNRFFYQMMEQVFQEVAFLIRGEKEMVWQMVRNVCEGTSRNTSSMLADVRANRQTEINAIVGYVLEEAKKQQLPVPTLQFLFDAIKGLETREGHHHHHH | not soluble
